Measured values: patent US11708565B2, “HPPD variants and methods of use” (BASF AGRICULTURAL SOLUTIONS SEED US LLC, priority 2017, dated 2023)
Substitutions are numbered along the chain they refer to. Names may count otherwise.

B1: SG10: HPPD variant, SEQ ID NO:3; P268D, E335P, G336D, N337S, K339Y, A340R, I345M (protein)
chain: MADLYENPMGLMGFEFIEFASPTPGTLEPIFEIMGFTKVATHRSKNVHLYRQGEINLILNNEPNSIASYFAAEHGPSVCGMAFRVKDSQKAYNRALELGAQPIHIDTGPMELNLPAIKGIGGAPLYLIDRFGEGSSIYDIDFVYLEGVERNPVGAGLKVIDHLTHNVYRGRMVYWANFYEKLFNFREARYFDIKGEYTGLTSKAMSAPDGMIRIPLNEESSKGAGQIEEFLMQFNGEGIQHVAFLTDDLVKTWDALKKIGMRFMTAPDDTYYEMLEGRLPDHGEPVDQLQARGILLDGSSVEGDKRLLLQIFSETLMGPVFFEFIQRKGDDGFGPDSFYRLFESMERDQVRRGVLTAD
modifications: SG10 Mutant HPPD
notes: P268D, E335P, G336D, N337S, K339Y, A340R, I345M
B2: SG1: HPPD variant, SEQ ID NO:2; E335P, G336D, N337S, K339Y, A340R relative to SEQ ID NO:1 (protein)
chain: B1 chain with D268P, M345I
modifications: SG1 variant HPPD
B3: SG20: HPPD variant, SEQ ID NO:4; P268D, T270A, E335P, G336D, N337S, K339Y, A340R, S344Q, I345M (protein)
chain: B1 chain with T270A, S344Q
modifications: SG20 mutant HPPD
notes: P268D, T270A, E335P, G336D, N337S, K339Y, A340R, S344Q, I345M
B4: SG22: HPPD variant, SEQ ID NO:5; P268D, E335N, G336D, N337S, A340R, I345M (protein)
chain: B1 chain with P335N, Y339K
modifications: SG22 mutant HPPD
notes: P268D, E335N, G336D, N337S, A340R, I345M

Assays:
[1] = tested on: E. coli; assay: Brown Color Assay (cell-based colorimetric assay of HPPD activity and tolerance to HPPD inhibitors); conditions: in the presence of 1 mM Cmpd. 1; for brown color formation: read at 440 nm
Method: A specific, although non-limiting, type of assay that can be used to evaluate the HPPD sequences of the invention is a colorimetric assay. In this assay, a YT-broth-type culture medium with 1% agarose, 5 mM L-Tyrosine and 42 mM Succinate, which contains the selection agent for the vector pSE420 (Invitrogen, Karlsruhe, Germany) or a modified version of pSE420 (pSE420(RI)NX) is poured into deep well plates. E. coli culture in the exponential growth phase which contains the vector pSE420-HPPDx (HPPDx means any gene coding for a putative HPPD enzyme/protein) is applied to each well.
Confirmation of activity by Brown Color Assay: To confirm that the designated hits retain HPPD activity and are tolerant to HPPD inhibitors, a cell-based colorimetric assay was employed. Wild-type E. coli strains lack the HPPD pathway; therefore expressing an HPPD enzyme in the presence of the substrate hydroxyphenylpyruvate (HPP) leads to the accumulation of the product, homogentisate (HGA). HGA is, in turn, auto-oxidized to a brown pigment, pyomelanin, which can be read at 440 nm. When cells are grown in the presence of an herbicide, brown color formation is inhibited with no effect on cell growth. The pRANGER vector is a low-copy, broad host range vector that allows some expression in E. coli.

[2] = tested on: Cmpd. 1; assay: HitMix bacterial competition experiment against Cmpd. 1; type: cell-based; conditions: plasmid DNA of SG1, SG10 and reference proteins mixed, transformed and screened against Cmpd. 1
Excerpt: Screening variant libraries: In order to select improved variants, libraries of varying complexity were constructed in the pRANGER backbone. The first significant library to be screened was a multi-site saturation library, in which amino acid positions 338, 339, 340, and 341 were randomized with NNK codons, which use 32 codons to encode all 20 amino acids, for a theoretical complexity of 1.6×10^5 unique protein variants. Approximately 500,000 variants were transformed and screened in a bacterial competition assay against 5 mM Cmpd. 1 (2-chloro-3-(methylsulfanyl)-N-(1-methyl-1H-tetrazol-5-yl)-4-(trifluoromethyl)benzamide), and surviving clones were sequenced. After 3 rounds of subculturing, a single sequence was found and designated SG1 (Table 1). This sequence was used as the base gene for a 2nd generation library saturating positions 268, 270, 340, and 345. Similarly, these libraries were screened and SG10 (Table 1) was obtained from sequencing the surviving cultures at high concentrations of Cmpd. 1. To confirm that the hits had improved tolerance relative to K610, a “HitMix” competition experiment was carried out. Briefly, the plasmid DNA encoding each variant to be competed were mixed together in an Eppendorf tube, and then the DNA mixture was transformed and screened against Cmpd. 1 as previously described.

[3] = tested on: Thorne soybean plants; assay: Greenhouse herbicide spray application on T0 soybean plants; type: in vivo; conditions: single gene cassettes in Thorne soybean, T0 plants sprayed with Cmpd. 1
Excerpt: SG1, SG10, SG20, and SG22 were transformed as single gene cassettes into Thorne soybean plants and T0 plants were sprayed with Cmpd. 1 to measure herbicide tolerance. Each iteration of mutant identified in the bacterial screening assay performed better than the previous version (SG20>SG10>SG1).

Molecule	brown color formation relative to HPPD(evo41) [1]	brown color formation [1]	outcome of HitMix competition among variants [2]	herbicide tolerance in planta [3]
B1	improved relative to HPPD(evo41)	robust brown color formation	emerged as the dominant sequence among all variants tested	SG20>SG10>SG1
B2	improved relative to HPPD(evo41)	robust brown color formation		SG20>SG10>SG1
B3				SG20>SG10>SG1
B4				performed similarly to SG1
